# Residue numbers refer to the chain shown, from its start. In names and notes the source's numbering stands.
# T1: GST-tagged SH3 domain of Bin1
# T1 chain: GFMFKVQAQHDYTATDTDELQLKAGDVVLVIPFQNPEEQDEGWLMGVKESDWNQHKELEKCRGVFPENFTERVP
# B1: dynamin-2 (human Dyn2 isoform 1), wild type, P50570 S848A (protein)
# chain: MGNRGMEELIPLVNKLQDAFSSIGQSCHLDLPQIAVVGGQSAGKSSVLENFVGRDFLPRGSGIVTRRPLILQLIFSKTEHAEFLHCKSKKFTDFDEVRQEIEAETDRVTGTNKGISPVPINLRVYSPHVLNLTLIDLPGITKVPVGDQPPDIEYQIKDMILQFISRESSLILAVTPANMDLANSDALKLAKEVDPQGLRTIGVITKLDLMDEGTDARDVLENKLLPLRRGYIGVVNRSQKDIEGKKDIRAALAAERKFFLSHPAYRHMADRMGTPHLQKTLNQQLTNHIRESLPALRSKLQSQLLSLEKEVEEYKNFRPDDPTRKTKALLQMVQQFGVDFEKRIEGSGDQVDTLELSGGARINRIFHERFPFELVKMEFDEKDLRREISYAIKNIHGVRTGLFTPDLAFEAIVKKQVVKLKEPCLKCVDLVIQELINTVRQCTSKLSSYPRLREETERIVTTYIREREGRTKDQILLLIDIEQSYINTNHEDFIGFANAQQRSTQLNKKRAIPNQGEILVIRRGWLTINNISLMKGGSKEYWFVLTAESLSWYKDEEEKEKKYMLPLDNLKIRDVEKGFMSNKHVFAIFNTEQRNVYKDLRQIELACDSQEDVDSWKASFLRAGVYPEKDQAENEDGAQENTFSMDPQLERQVETIRNLVDSYVAIINKSIRDLMPKTIMHLMINNTKAFIHHELLAYLYSSADQSSLMEESADQAQRRDDMLRMYHALKEALNIIGDISTSTVSTPVPPPVDDTWLQSASSHSPTPQRRPVSSIHPPGRPPAVRGPTPGPPLIPVPVGAAASFSAPPIPSRPGPQSVFANSDLFPAPPQIPSRPVRIPPGIPPGVPARRPPAAPSRPTIIRPAEPSLLD
# B2: dynamin-2 (human Dyn2 isoform 1), wild type, P50570 S848E (protein)
# chain: B1 chain with A848E
# B3: dynamin-2 (human Dyn2 isoform 1), wild type, P50570 S856A (protein)
# chain: B1 chain with A848S, S856A
# B4: dynamin-2 (human Dyn2 isoform 1), wild type, P50570 S856E (protein)
# chain: B1 chain with A848S, S856E
# Biological target: T1, GST-tagged SH3 domain of Bin1
# Test: GST pulldown
# Settings: chain shown with the change; 12 µg GST-Bin-SH3, 6 µg purified Dyn2; parent: 1.0; read off a plot
row,Binder,ratio to parent
1,B1,0.86
2,B2,0.42

# Same assay, conditions: chain shown with the change;; parent: 1.0; read off a plot
row,Binder,ratio to parent
1,B1,1.2
2,B3,1.1
3,B2,0.66
4,B4,1

# — PMC9712776
